The source of these data is patent publication US20240272170A1 (QUANTUM SI, published 2024).

For assay [1], the target named is T1, QP1165 after cleavage to N-terminal isoleucine (IAFLKQRVWK).
T1 peptide: IAFLKQRVWK
Kind of assay: on-chip dynamic sequencing of QP1165, PS1875 run, trace Aperture=295010.

For assay [2], the target named is T2, QP1165 after cleavage to N-terminal leucine (LKQRVWK).
T2 peptide: LKQRVWK
The assay is described as above.

The target of assay [3] is T1, QP1165 after cleavage to N-terminal …. Kind of assay: on-chip dynamic sequencing of QP1165, PS1875 run, trace Aperture=1311609.
For assay [4] the target is unchanged. As to the kind of experiment: on-chip dynamic sequencing of QP1165, PS2123 run, trace Aperture=1168773.
In assay [5] the target is T2, QP1165 after cleavage to N-terminal …. The description is as above.
The target is the same in assay [6]. As to the kind of experiment: on-chip dynamic sequencing of QP1165, 500 nM PS1875 plus five recognizers, 3369 alignments.
Assay [7] addresses T1, QP1165 after cleavage to N-terminal …. Kind of assay: on-chip dynamic sequencing of QP1165, 500 nM PS2121 plus five recognizers, 15527 alignments.
For assay [8], the target named is T2, QP1165 after cleavage to N-terminal …. The assay is described as above.

B1: PS1223 (designed binder)
single polypeptide, two PS961 units in tandem: MPTAASATESAIEDTPAPARPEVDGRTKPKRQPRYHVVLWDDDDHTYQYVVVMLRSLFGHPPSRGYRMAKEMDTQGRVIVLTTTREHAELKRDQIHAFGRDRLLARSKGSMKASIEAEEGSAGSAAGSGEFGSAGSAAGSGEFGSAGSAAGSGEFMPTAASATESAIEDTPAPARPEVDGRTKPKRQPRYHVVLWDDDDHTYQYVVVMLRSLFGHPPSRGYRMAKEMDTQGRVIVLTTTREHAELKRDQIHAFGRDRLLARSKGSMKASIEAEE
notes: dye-labelled recognizer for N-terminal L, I, V in the six-recognizer runs; also called PS1223 (LIV)
Turning to B1, the “PD of a recognition segment in an example trace” value in assay [1] came to 0.48 s; in assay [2] it was 3.19 s; in assay [3], 0.61 s; in assay [4] it was 0.53 s; in assay [5], 0.39 s. Moreover, the “IPD (interpulse duration)” value in assay [6] worked out at 15.3 s; in assay [7], 8.64 s; in assay [8] it was 16.6 s. Moreover, the figures for the “PD (pulse duration)” value in assay [6], in assay [7] and in assay [8] were 0.66 s, 0.7 s and 0.63 s, respectively.
